Test system: iPSCs derived mammary gland organoids
Assay: Flow cytometry quantification of mammary gland progenitor markers in 3D iPSC differentiation (42-day and shortened 31-day protocols)
Assay type: cell-based, human
Details: 20 ng/ml BMP4, 1 μM RA, single or combination, 42 days and 31 days protocols, compared to control condition
From the text: Scheme summarizing different procedures for the generation of mammary gland progenitors in 42 days (a), using bone morphogenetic protein 4 (BMP4) (b), retinoic acid (RA) (c), combinations of BMP4 and RA (d) and their combination in shortened time-course (31 days) (e). The red boxes indicate the period of addition of BMP4 and/or RA.

B1: BMP4: bone morphogenetic protein 4, growth factor added to the culture medium (protein, UniProt P12644 293-408, looked up)
Bone morphogenetic protein 4: SPKHHSQRARKKNKNCRRHSLYVDFSDVGWNDWIVAPPGYQAFYCHGDCPFPLADHLNSTNHAIVQTLVNSVNSSIPKACCVPTELSAISMLYLDEYDKVVLKNYQEMVVEGCGCR
- expression of mammary gland progenitor markers (EpCAM, CD49f, MUC1, GATA3): can induce the expression of mammary gland progenitor markers

From US20250297216A1, “METHOD FOR PRODUCING MILK LIKE PRODUCTS” (SOCIETE DES PRODUITS NESTLE S.A., priority 2021, published 2025)
